Results taken from IntAct's records for PubMed 31515488.

B1: Maspardin (Homo sapiens), Q9NZD8 (parent)
chain: MGEIKVSPDYNWFRGTVPLKKIIVDDDDSKIWSLYDAGPRSIRCPLIFLPPVSGTADVFFRQILALTGWGYRVIALQYPVYWDHLEFCDGFRKLLDHLQLDKVHLFGASLGGFLAQKFAEYTHKSPRVHSLILCNSFSDTSIFNQTWTANSFWLMPAFMLKKIVLGNFSSGPVDPMMADAIDFMVDRLESLGQSELASRLTLNCQNSYVEPHKIRDIPVTIMDVFDQSALSTEAKEEMYKLYPNARRAHLKTGGNFPYLCRSAEVNLYVQIHLLQFHGTKYAAIDPSMVSAEELEVQKGSLGISQEEQ
partner: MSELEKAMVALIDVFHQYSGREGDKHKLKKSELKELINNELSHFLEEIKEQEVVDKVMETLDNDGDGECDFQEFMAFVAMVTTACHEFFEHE
B2: Tektin-3 (Homo sapiens), Q9BXF9 (parent)
chain: MERVGCTLTTTYAHPRPTPTNFLPAISTMASSYRDRFPHSNLTHSLSLPWRPSTYYKVASNSPSVAPYCTRSQRVSENTMLPFVSNRTTFFTRYTPDDWYRSNLTNYQESNTSRHNSEKLRVDTSRLIQDKYQQTRKTQADTTQNLGERVNDIGFWKSEIIHELDEMIGETNALTDVKKRLERALMETEAPLQVARECLFHREKRMGIDLVHDEVEAQLLTEVDTILCCQERMKLHLDKAIAQLAANRASQHELEKDLSDKQTAYRIDDKCHHLRNTSDGVGYFRGVERVDATVSVPESWAKFTDDNILRSQSERAASAKLRDDIENLLVVTANEMWNQFNKVNLSFTNRIAETADAKNKIQTHLAKTLQEIFQTEMTIESIKKAIKDKTAFLKVAQTRLDERTRRPNIELCRDMAQLRLVNEVHEVDDTIQTLQQRLRDAEDTLQSLVHIKATLEYDLAVKANSLYIDQEKCMSMRKSYPNTLRLVGFC
partner: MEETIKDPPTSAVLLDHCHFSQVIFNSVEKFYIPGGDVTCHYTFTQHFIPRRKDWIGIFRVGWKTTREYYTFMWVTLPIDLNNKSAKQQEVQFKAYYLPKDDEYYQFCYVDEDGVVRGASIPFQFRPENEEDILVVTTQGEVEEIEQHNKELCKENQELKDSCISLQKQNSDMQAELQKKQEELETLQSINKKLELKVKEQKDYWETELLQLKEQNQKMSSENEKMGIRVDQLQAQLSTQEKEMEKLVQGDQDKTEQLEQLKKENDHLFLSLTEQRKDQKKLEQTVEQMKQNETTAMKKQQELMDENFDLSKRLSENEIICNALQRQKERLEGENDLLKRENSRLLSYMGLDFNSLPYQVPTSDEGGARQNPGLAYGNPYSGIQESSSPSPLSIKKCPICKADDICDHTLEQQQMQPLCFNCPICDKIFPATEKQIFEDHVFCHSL
B3: Notch homolog 2 N-terminal-like protein A (Homo sapiens), Q7Z3S9 (parent)
chain: MCVTYHNGTGYCKCPEGFLGEYCQHRDPCEKNRCQNGGTCVAQAMLGKATCRCASGFTGEDCQYSTSHPCFVSRPCLNGGTCHMLSRDTYECTCQVGFTGKECQWTDACLSHPCANGSTCTTVANQFSCKCLTGFTGQKCETDVNECDIPGHCQHGGTCLNLPGSYQCQCLQGFTGQYCDSLYVPCAPSPCVNGGTCRQTGDFTFECNCLPETVRRGTELWERDREVWNGKEHDEN
partner: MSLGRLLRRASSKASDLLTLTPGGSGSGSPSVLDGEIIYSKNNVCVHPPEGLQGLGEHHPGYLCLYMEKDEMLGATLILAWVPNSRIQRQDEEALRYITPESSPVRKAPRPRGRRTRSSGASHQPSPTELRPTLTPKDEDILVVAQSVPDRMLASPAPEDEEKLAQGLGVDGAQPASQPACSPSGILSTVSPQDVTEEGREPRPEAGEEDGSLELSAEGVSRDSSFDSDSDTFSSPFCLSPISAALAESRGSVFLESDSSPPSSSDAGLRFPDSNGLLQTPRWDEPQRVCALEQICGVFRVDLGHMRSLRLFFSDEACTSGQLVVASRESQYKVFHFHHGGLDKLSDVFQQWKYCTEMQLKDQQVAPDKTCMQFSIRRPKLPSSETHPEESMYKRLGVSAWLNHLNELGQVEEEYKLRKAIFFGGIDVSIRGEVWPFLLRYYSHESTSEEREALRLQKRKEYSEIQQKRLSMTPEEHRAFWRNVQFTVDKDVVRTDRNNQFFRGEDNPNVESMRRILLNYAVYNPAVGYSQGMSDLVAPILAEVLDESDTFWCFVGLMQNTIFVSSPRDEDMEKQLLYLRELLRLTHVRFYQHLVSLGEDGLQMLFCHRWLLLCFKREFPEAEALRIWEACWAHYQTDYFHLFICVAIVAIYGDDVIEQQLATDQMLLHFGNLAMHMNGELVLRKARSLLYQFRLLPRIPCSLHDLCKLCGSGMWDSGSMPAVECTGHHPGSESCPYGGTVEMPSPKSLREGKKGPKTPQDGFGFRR
B4: Ras and Rab interactor 1 (Homo sapiens), Q13671 (parent)
chain: MESPGESGAGSPGAPSPSSFTTGHLAREKPAQDPLYDVPNASGGQAGGPQRPGRVVSLRERLLLTRPVWLQLQANAAAALHMLRTEPPGTFLVRKSNTRQCQALCMRLPEASGPSFVSSHYILESPGGVSLEGSELMFPDLVQLICAYCHTRDILLLPLQLPRAIHHAATHKELEAISHLGIEFWSSSLNIKAQRGPAGGPVLPQLKARSPQELDQGTGAALCFFNPLFPGDLGPTKREKFKRSFKVRVSTETSSPLSPPAVPPPPVPVLPGAVPSQTERLPPCQLLRRESSVGYRVPAGSGPSLPPMPSLQEVDCGSPSSSEEEGVPGSRGSPATSPHLGRRRPLLRSMSAAFCSLLAPERQVGRAAAALMQDRHTAAGQLVQDLLTQVRAGPEPQELQGIRQALSRARAMLSAELGPEKLLSPKRLEHVLEKSLHCSVLKPLRPILAARLRRRLAADGSLGRLAEGLRLARAQGPGAFGSHLSLPSPVELEQVRQKLLQLLRTYSPSAQVKRLLQACKLLYMALRTQEGEGAGADEFLPLLSLVLAHCDLPELLLEAEYMSELLEPSLLTGEGGYYLTSLSASLALLSGLGQAHTLPLSPVQELRRSLSLWEQRRLPATHCFQHLLRVAYQDPSSGCTSKTLAVPPEASIATLNQLCATKFRVTQPNTFGLFLYKEQGYHRLPPGALAHRLPTTGYLVYRRAEWPETQGAVTEEEGSGQSEARSRGEEQGCQGDGDAGVKASPRDIREQSETTAEGGQGQAQEGPAQPGEPEAEGSRAAEE
partner: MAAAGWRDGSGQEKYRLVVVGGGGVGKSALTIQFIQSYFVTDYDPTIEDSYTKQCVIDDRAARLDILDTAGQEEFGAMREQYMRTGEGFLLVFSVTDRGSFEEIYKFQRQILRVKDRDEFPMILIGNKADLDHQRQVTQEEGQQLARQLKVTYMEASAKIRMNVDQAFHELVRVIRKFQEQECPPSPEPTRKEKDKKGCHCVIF
B5: 5'-AMP-activated protein kinase subunit beta-2 (Homo sapiens), O43741 (parent)
chain: MGNTTSDRVSGERHGAKAARSEGAGGHAPGKEHKIMVGSTDDPSVFSLPDSKLPGDKEFVSWQQDLEDSVKPTQQARPTVIRWSEGGKEVFISGSFNNWSTKIPLIKSHNDFVAILDLPEGEHQYKFFVDGQWVHDPSEPVVTSQLGTINNLIHVKKSDFEVFDALKLDSMESSETSCRDLSSSPPGPYGQEMYAFRSEERFKSPPILPPHLLQVILNKDTNISCDPALLPEPNHVMLNHLYALSIKDSVMVLSATHRYKKKYVTTLLYKPI

Variants of: B1
Details: with S100B

Variant | effect of a mutation on the interaction
A180T | disrupting interaction strength

Variants of: B2
Details: with caco2_human CALCOCO2, Q13137

Variant | effect of a mutation on the interaction
R196Q | with no effect
G282A | with no effect
Q129K | with no effect

Variants of: B3
Details: with tbc16_human TBC1D16, Q8TBP0

Variant | effect of a mutation on the interaction
A115T | with no effect
R74Q | with no effect

Variants of: B4
Details: with rras2_human RRAS2, P62070

Variant | effect of a mutation on the interaction
R238Q | with no effect

Variants of: B5
Details: with oxda_human DAO

Variant | effect of a mutation on the interaction
G55E | with no effect

Variants of: B5
Details: with mdfi_human MDFI

Variant | effect of a mutation on the interaction
G55E | with no effect

Variants of: B5
Details: with crx_human CRX

Variant | effect of a mutation on the interaction
G55E | with no effect

Variants of: B5
Details: with cdx4_human CDX4, O14627
Chain of cdx4_human CDX4, O14627 (O14627 whole entry): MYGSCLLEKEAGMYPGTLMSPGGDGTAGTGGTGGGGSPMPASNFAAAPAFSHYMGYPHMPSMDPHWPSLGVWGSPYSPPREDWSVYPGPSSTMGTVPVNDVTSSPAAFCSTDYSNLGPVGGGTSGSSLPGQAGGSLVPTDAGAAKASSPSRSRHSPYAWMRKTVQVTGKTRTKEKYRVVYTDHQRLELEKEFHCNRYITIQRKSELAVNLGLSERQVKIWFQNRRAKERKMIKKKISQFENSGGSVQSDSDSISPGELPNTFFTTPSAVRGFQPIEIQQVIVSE

Variant | effect of a mutation on the interaction
G55E | with no effect
